1 molecule from EP1486506A1 (INSTITUT NATIONAL DE LA SANTE ET DE LA RECHERCHE MEDICALE …, dated 2004) can be followed below.

The target in this experiment is T1, LexA alone (UniProt P0A7C2 1-202).
T1 construct: also called only the LexA part of the fusion protein
T1 sequence: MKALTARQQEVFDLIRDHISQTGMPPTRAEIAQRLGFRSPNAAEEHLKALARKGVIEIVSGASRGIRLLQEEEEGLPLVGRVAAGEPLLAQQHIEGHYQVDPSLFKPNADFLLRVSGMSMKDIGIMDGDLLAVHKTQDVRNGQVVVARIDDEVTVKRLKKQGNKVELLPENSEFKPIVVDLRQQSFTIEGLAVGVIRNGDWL
As to the kind of experiment: yeast two-hybrid GFP reporter, flow cytometry (control, Fig. 2E). (In general: A flow cytometer gives signals particle by particle.)

B1: VP16-HIPK2/PEST (other)
chain: HVMRQQPTSTTSSRKSKQHQSSVRNVSTCEVTSSQAISSPQRSKRVKENTPPRCAMVHSSPACSTSVTCGWGDVASSTTRERQRQTIVIPDTPSPTVSVITISSDTDEEEEQKHAPTSTVSKQRKNVISCVTVHDSP
notes: range 789-925
On to B1, for which the binding result is listed as “no binding”.
